Test results reported in US20240425569A1 (VISTERRA, published 2024).
Like-named read-outs stand apart in the source and are kept apart here.

Columns and labels:
[1] = target: T1, New Caledonia/2009 (serotype IV EDIII); experiment: Kd table, method not stated; Ag DENV-4 NC
T1 construct: also called ED3-DV4/NewCal09; DENV-4 NC
T1 E protein domain III (EDIII): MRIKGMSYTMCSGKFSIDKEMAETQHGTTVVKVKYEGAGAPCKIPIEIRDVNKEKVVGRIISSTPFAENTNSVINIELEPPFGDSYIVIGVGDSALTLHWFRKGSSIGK

[2] = target: T2, EDIII-DV4 (E protein domain III of dengue virus serotype DV-4) (dengue virus serotype DV-4, UniProt P09866 572-679); experiment: competition ELISA; column 'EDIII-DV4 [1/7]'
T2 construct: also called DENV-4

[3] = target: T3, Peru/1995 (serotype II EDIII); experiment: Kd table, method not stated; Ag DENV-2 Peru
T3 construct: also called ED3-DV2/Peru95; DENV-2 Peru

[4] = target: T4, Singapore/2009 (serotype III EDIII)
T4 construct: also called ED3-DV3/Sing09; DENV-3 Sing
T4 E protein domain III (EDIII): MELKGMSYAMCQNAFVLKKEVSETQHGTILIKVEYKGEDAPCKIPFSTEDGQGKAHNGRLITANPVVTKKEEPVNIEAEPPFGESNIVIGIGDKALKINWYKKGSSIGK

[5] = target: ED3-DV4/H241/Phil56 (EDIII of DENV-4 strain H241) (dengue virus serotype DENV-4, strain …, UniProt Q58HT7 572-679); experiment: Kd table, method not stated; Ag DENV-4 Phil
[6] = target: T5, Mexico/2007 (serotype I EDIII)
T5 construct: also called ED3-DV1/Mexico07
T5 E protein domain III (EDIII): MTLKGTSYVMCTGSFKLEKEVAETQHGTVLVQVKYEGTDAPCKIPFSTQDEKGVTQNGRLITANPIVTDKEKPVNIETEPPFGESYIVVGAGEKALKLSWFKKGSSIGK

[7] = target: T6, Hawaii/1944* (serotype I EDIII) (Dengue virus 1); experiment: SPR; row Hawaii/1944*, serotype I, genotype I
T6 construct: isolated EDIII protein; also called EDIII of DENV-1 Hawaii/1944

[8] = target: T5, Mexico/2007 (serotype I EDIII)
[9] = target: T3, Peru/1995 (serotype II EDIII); experiment: SPR; row Peru/1995, serotype II, genotype American
[10] = target: T7, Venezuela/2008 (serotype IV EDIII); experiment: SPR; row Venezuela/2008, serotype IV, genotype IIa
T7 E protein domain III (EDIII): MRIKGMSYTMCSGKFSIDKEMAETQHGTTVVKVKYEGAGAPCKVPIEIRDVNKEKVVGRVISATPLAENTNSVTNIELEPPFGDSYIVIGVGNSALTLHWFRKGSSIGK

[11] = target: T4, Singapore/2009 (serotype III EDIII)
[12] = target: T8, Thailand/1997 (serotype IV EDIII); experiment: ELISA; row Thailand/1997, serotype IV, genotype III
T8 E protein domain III (EDIII): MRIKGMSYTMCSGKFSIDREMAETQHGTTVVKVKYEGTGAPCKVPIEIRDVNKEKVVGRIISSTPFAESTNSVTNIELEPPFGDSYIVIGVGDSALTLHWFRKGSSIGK

[13] = target: T9, Singapore/2010 (serotype IV EDIII); experiment: ELISA; row Singapore/2010, serotype IV, genotype IIb
T9 construct: also called ED3-DV4/Sing10; DENV-4 Sing
T9 E protein domain III (EDIII): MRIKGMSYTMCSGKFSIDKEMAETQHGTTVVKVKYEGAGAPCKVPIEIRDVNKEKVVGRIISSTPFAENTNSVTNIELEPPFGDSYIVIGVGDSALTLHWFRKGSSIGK

[14] = target: T10, Vietnam/2007 (serotype II EDIII); experiment: SPR; row Vietnam/2007, serotype II, genotype Asian II
T10 construct: Genotype Asian II; also called ED3-DV2/Viet07
T10 E protein domain III (EDIII): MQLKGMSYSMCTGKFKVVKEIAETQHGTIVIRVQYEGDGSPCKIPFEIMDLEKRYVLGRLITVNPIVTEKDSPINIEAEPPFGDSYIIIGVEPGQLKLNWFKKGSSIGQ

[15] = target: T11, Puerto Rico/1977 (serotype III EDIII); experiment: ELISA; row Puerto Rico/1977, serotype III, genotype IV
T11 construct: Genotype IV; also called ED3-DV3/PuertoRico77
T11 E protein domain III (EDIII): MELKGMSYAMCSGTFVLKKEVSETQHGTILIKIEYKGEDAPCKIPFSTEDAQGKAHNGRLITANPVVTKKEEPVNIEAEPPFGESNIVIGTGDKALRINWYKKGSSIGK

[16] = target: T1, New Caledonia/2009 (serotype IV EDIII); experiment: SPR; row New Caledonia/2009, serotype IV, genotype IIb
[17] = target: T10, Vietnam/2007 (serotype II EDIII); experiment: ELISA; row Vietnam/2007, serotype II, genotype Asian II
[18] = target: T12, Mexico/1977 (BC287/97)* (serotype IV EDIII) (Dengue virus 4); experiment: SPR; row Mexico/1977 (BC287/97)*, serotype IV, genotype IIa
T12 construct: isolated EDIII protein; also called EDIII of DENV-4 Mexico/1997 (BC287/97); DENV-4 BC2

[19] = target: T13, Singapore/2008 (serotype II EDIII); experiment: ELISA; row Singapore/2008, serotype II, genotype Cosmopolitan
T13 construct: also called ED3-DV2/Sing08; DENV-2 Sing

[20] = target: T14, New Guinea/1944 (NGC)* (serotype II EDIII) (Dengue virus 2); experiment: SPR; row New Guinea/1944 (NGC)*, serotype II, genotype Asian I
T14 construct: isolated EDIII protein; also called EDIII of DENV-2 NGC
T14 sequence (P14340 578-673): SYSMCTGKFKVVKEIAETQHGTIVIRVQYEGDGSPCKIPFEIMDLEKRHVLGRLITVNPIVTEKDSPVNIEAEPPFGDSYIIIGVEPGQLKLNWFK

B1: antibody D88 (antibody, V domains shown)
VH: QVQLVQSGAEVKKPGASVKVSCKAGFNIKDVYMSWVRQAPEQGLEWMGRIDPENGDTKYDPKLQGRVTMTADTSTNTAYMELRSLRSDDTAVYYCARGWEGFAYWGQGTLVTVSS
VL: DIVMTQSPASLAVSLGERATISCRASENVDKYGNSFMHWYQQKPGQPPKLLIYRASELQWGVPDRFSGSGSGTDFTLTISSLQAEDVAVYYCQRSNEVPWTFGQGTKLEIK
notes: also called mAb D88
- Kd [1]: 10.8 nM
- Kd [2]: 3.12 nM
- Kd [3]: < 0.1 nM
- Kd [4]: 0.33 nM
- Kd [5]: 148 nM
- Kd [6]: 0.071 nM
- Kd [7]: 0.041 nM
- Kd [8]: < 0.1 nM
- Kd [9]: 0.012 nM
- Kd [10]: 3.03 nM
- Kd [11]: 0.35 nM
- Kd [12]: 612 nM
- Kd [13]: 8.43 nM
- Kd [14]: 0.014 nM
- Kd [15]: 1.36 nM
- Kd [16]: 8.9 nM
- Kd [17]: < 0.1 nM
- Kd [18]: 3.8 nM
- Kd [19]: < 0.1 nM
- Kd [20]: 0.016 nM
